Patent US20200131230A1 (published 2020)
Where two headings read alike, the source gives them in different places. Positions of bridges follow the written chain, without caps; N, C: chain ends. Non-standard residues stand in square brackets, D forms with d. 2Nal = N[C@@H](Cc1ccc2ccccc2c1)C(=O)O; Phg = N[C@H](C(=O)O)c1ccccc1; Tle = CC(C)(C)[C@H](N)C(=O)O; hCys = N[C@@H](CCS)C(=O)O; Nle = CCCC[C@H](N)C(=O)O; MS = not defined here

Tests used:
[1] = target: T1, Thrombospondin human platelet (Calbiochem, 605225) (human, UniProt P07996 19-1170); assay: cell-based or functional assay
T1 sequence (P07996 19-1170 limits assumed): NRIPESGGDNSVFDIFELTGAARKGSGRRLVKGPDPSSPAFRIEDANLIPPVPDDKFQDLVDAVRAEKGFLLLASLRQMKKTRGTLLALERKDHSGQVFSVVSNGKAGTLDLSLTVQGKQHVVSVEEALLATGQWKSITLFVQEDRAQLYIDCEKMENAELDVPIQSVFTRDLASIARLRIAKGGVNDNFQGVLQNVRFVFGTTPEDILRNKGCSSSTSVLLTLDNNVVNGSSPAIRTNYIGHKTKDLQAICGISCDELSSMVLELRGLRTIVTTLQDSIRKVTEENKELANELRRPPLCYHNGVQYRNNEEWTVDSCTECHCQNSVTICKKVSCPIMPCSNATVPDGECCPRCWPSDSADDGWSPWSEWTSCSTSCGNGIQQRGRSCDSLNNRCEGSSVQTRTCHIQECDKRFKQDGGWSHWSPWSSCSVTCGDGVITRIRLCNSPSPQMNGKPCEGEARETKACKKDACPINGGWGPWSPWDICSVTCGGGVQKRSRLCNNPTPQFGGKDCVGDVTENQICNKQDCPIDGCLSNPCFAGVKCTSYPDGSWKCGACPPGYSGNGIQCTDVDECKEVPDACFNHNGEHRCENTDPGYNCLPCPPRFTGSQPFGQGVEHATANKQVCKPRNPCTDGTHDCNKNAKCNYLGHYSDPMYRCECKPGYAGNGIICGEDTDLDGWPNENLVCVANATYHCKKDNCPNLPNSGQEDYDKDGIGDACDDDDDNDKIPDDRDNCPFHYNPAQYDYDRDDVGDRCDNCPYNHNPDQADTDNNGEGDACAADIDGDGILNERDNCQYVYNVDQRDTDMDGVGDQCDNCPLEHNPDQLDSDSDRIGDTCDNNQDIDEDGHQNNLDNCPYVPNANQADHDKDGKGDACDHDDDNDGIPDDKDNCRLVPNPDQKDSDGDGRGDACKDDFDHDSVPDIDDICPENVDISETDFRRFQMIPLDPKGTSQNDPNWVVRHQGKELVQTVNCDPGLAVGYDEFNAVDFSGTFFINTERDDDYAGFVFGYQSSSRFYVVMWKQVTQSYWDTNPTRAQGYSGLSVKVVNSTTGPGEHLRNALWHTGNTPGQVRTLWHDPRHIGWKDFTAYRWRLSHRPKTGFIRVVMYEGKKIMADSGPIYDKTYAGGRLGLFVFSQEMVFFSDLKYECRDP

Recombinant-hTSP1 = Recombinant-hTSP1 (human, UniProt P07996 19-1170, limits assumed); assay: SPR (Biacore T200), single-cycle kinetics, recombinant hTSP1 immobilised on NTA chip
Sequence of Recombinant-hTSP1 (P07996 19-1170 limits assumed): as above
Procedure: First, 500 μM NiCl₂ was injected over an NTA-Chip (produced by GE Healthcare, BR100532) at a flow rate of 5 μL/min. for 1 minute to thereby activate NTA groups. Then, an EDC/NHS mixture was injected at a flow rate of 10 μL/min. for 7 minutes to thereby activate the carboxyl groups of dextran. Recombinant-hTSP1 was injected at a flow rate of 10 μL/min. for 7 minutes to immobilize the TSP1 on the substrate surfaces with activated NTA and carboxyl groups. Ethanolamine was injected at a flow rate of 10 μL/min. for 7 minutes to thereby deactivate unreacted, activated carboxyl groups.
Since Biacore T200 is highly responsive to change in DMSO concentrations, DMSO solutions were sequentially injected at concentrations of 4%, 4.4%, 4.8%, 5.2%, 5.6%, and 6% to correct for DMSO effects.
The analysis was conducted using the evaluation software provided with Biacore T100 and T200. A DMSO correction curve obtained by solvent correction measurements was applied for the analysis. Kinetics fitting was done on the difference data obtained by subtracting the baseline data from sample measurement data.

[2] = target: T1, Thrombospondin human platelet …; assay: cell-based or functional assay; remark: listed apart in the source
[3] = target: T1, Thrombospondin human platelet …; assay: cell-based or functional assay; remark: listed apart in the source

Binder | Cell adhesion IC50 [1] [nM] | Kd (Recombinant-hTSP1) [nM] | Cell adhesion IC50 [2] [nM] | further results
{CH2CO}-[2Nal]ISGRNW[Phg]KWVC-NH2 (thioether N-12; SMILES CC[C@H](C)[C@@H]1NC(=O)[C@H](Cc2ccc3ccccc3c2)NC(=O)CSC[C@@H](C(N)=O)NC(=O)[C@H](C(C)C)NC(=O)[C@H](Cc2c[nH]c3ccccc23)NC(=O)[C@H](CCCCN)NC(=O)[C@H](c2ccccc2)NC(=O)[C@H](Cc2c[nH]c3ccccc23)NC(=O)[C@H](CC(N)=O)NC(=O)[C@H](CCCNC(=N)N)NC(=O)CNC(=O)[C@H](CO)NC1=O) [Compound 51] | 16 |  |  | 
{CH2CO}-[2Nal]ISGKN[2Nal]VKWVC-NH2 (thioether N-12; SMILES CC[C@H](C)[C@@H]1NC(=O)[C@H](Cc2ccc3ccccc3c2)NC(=O)CSC[C@@H](C(N)=O)NC(=O)[C@H](C(C)C)NC(=O)[C@H](Cc2c[nH]c3ccccc23)NC(=O)[C@H](CCCCN)NC(=O)[C@H](C(C)C)NC(=O)[C@H](Cc2ccc3ccccc3c2)NC(=O)[C@H](CC(N)=O)NC(=O)[C@H](CCCCN)NC(=O)CNC(=O)[C@H](CO)NC1=O) [Compound 56] | 13.2 |  |  | 
{CH2CO}-[2Nal]ISGRNWVKW[Tle]C-NH2 (thioether N-12; SMILES CC[C@H](C)[C@@H]1NC(=O)[C@H](Cc2ccc3ccccc3c2)NC(=O)CSC[C@@H](C(N)=O)NC(=O)[C@H](C(C)(C)C)NC(=O)[C@H](Cc2c[nH]c3ccccc23)NC(=O)[C@H](CCCCN)NC(=O)[C@H](C(C)C)NC(=O)[C@H](Cc2c[nH]c3ccccc23)NC(=O)[C@H](CC(N)=O)NC(=O)[C@H](CCCNC(=N)N)NC(=O)CNC(=O)[C@H](CO)NC1=O) [Compound 53] | 15.9 |  |  | 
{CH2CO}-[2Nal]ISGRNWVKWV[hCys]-NH2 (thioether N-12; SMILES CC[C@H](C)[C@@H]1NC(=O)[C@H](Cc2ccc3ccccc3c2)NC(=O)CSCC[C@@H](C(N)=O)NC(=O)[C@H](C(C)C)NC(=O)[C@H](Cc2c[nH]c3ccccc23)NC(=O)[C@H](CCCCN)NC(=O)[C@H](C(C)C)NC(=O)[C@H](Cc2c[nH]c3ccccc23)NC(=O)[C@H](CC(N)=O)NC(=O)[C@H](CCCNC(=N)N)NC(=O)CNC(=O)[C@H](CO)NC1=O) [Compound 54] | 19.5 |  |  | 
{CH2CO}-[2Nal]ISGRNWVKW[Phg]C-NH2 (thioether N-12; SMILES CC[C@H](C)[C@@H]1NC(=O)[C@H](Cc2ccc3ccccc3c2)NC(=O)CSC[C@@H](C(N)=O)NC(=O)[C@H](c2ccccc2)NC(=O)[C@H](Cc2c[nH]c3ccccc23)NC(=O)[C@H](CCCCN)NC(=O)[C@H](C(C)C)NC(=O)[C@H](Cc2c[nH]c3ccccc23)NC(=O)[C@H](CC(N)=O)NC(=O)[C@H](CCCNC(=N)N)NC(=O)CNC(=O)[C@H](CO)NC1=O) [Compound 52] | 10.3 |  |  | 
{CH2CO}-[2Nal]ISGRN[2Nal]VKWVC-NH2 (thioether N-12; SMILES CC[C@H](C)[C@@H]1NC(=O)[C@H](Cc2ccc3ccccc3c2)NC(=O)CSC[C@@H](C(N)=O)NC(=O)[C@H](C(C)C)NC(=O)[C@H](Cc2c[nH]c3ccccc23)NC(=O)[C@H](CCCCN)NC(=O)[C@H](C(C)C)NC(=O)[C@H](Cc2ccc3ccccc3c2)NC(=O)[C@H](CC(N)=O)NC(=O)[C@H](CCCNC(=N)N)NC(=O)CNC(=O)[C@H](CO)NC1=O) [Compound 28] |  | 0.55 | 29.4 | 
{CH2CO}-[2Nal]ISGRNWVKWVC-NH2 (thioether N-12; SMILES CC[C@H](C)[C@@H]1NC(=O)[C@H](Cc2ccc3ccccc3c2)NC(=O)CSC[C@@H](C(N)=O)NC(=O)[C@H](C(C)C)NC(=O)[C@H](Cc2c[nH]c3ccccc23)NC(=O)[C@H](CCCCN)NC(=O)[C@H](C(C)C)NC(=O)[C@H](Cc2c[nH]c3ccccc23)NC(=O)[C@H](CC(N)=O)NC(=O)[C@H](CCCNC(=N)N)NC(=O)CNC(=O)[C@H](CO)NC1=O) [Compound 24] |  | 0.12 |  | Cell adhesion IC50 [3]: 6.1 nM
{CH2CO}-[2Nal]ISGRNWVHWVC-NH2 (thioether N-12; SMILES CC[C@H](C)[C@@H]1NC(=O)[C@H](Cc2ccc3ccccc3c2)NC(=O)CSC[C@@H](C(N)=O)NC(=O)[C@H](C(C)C)NC(=O)[C@H](Cc2c[nH]c3ccccc23)NC(=O)[C@H](Cc2c[nH]cn2)NC(=O)[C@H](C(C)C)NC(=O)[C@H](Cc2c[nH]c3ccccc23)NC(=O)[C@H](CC(N)=O)NC(=O)[C@H](CCCNC(=N)N)NC(=O)CNC(=O)[C@H](CO)NC1=O) [Compound 41] |  | 0.37 | 16.4 | 
{CH2CO}-[2Nal]ISGSNWVKWVC-NH2 (thioether N-12; SMILES CC[C@H](C)[C@@H]1NC(=O)[C@H](Cc2ccc3ccccc3c2)NC(=O)CSC[C@@H](C(N)=O)NC(=O)[C@H](C(C)C)NC(=O)[C@H](Cc2c[nH]c3ccccc23)NC(=O)[C@H](CCCCN)NC(=O)[C@H](C(C)C)NC(=O)[C@H](Cc2c[nH]c3ccccc23)NC(=O)[C@H](CC(N)=O)NC(=O)[C@H](CO)NC(=O)CNC(=O)[C@H](CO)NC1=O) [Compound 44] |  | 0.58 | 30.3 | 
{CH2CO}-[2Nal]ISGKNWVKWVC-NH2 (thioether N-12; SMILES CC[C@H](C)[C@@H]1NC(=O)[C@H](Cc2ccc3ccccc3c2)NC(=O)CSC[C@@H](C(N)=O)NC(=O)[C@H](C(C)C)NC(=O)[C@H](Cc2c[nH]c3ccccc23)NC(=O)[C@H](CCCCN)NC(=O)[C@H](C(C)C)NC(=O)[C@H](Cc2c[nH]c3ccccc23)NC(=O)[C@H](CC(N)=O)NC(=O)[C@H](CCCCN)NC(=O)CNC(=O)[C@H](CO)NC1=O) [Compound 43] |  | 0.13 | 9.2 | 
{CH2CO}-[2Nal]ISGHNWVKWVC-NH2 (thioether N-12; SMILES CC[C@H](C)[C@@H]1NC(=O)[C@H](Cc2ccc3ccccc3c2)NC(=O)CSC[C@@H](C(N)=O)NC(=O)[C@H](C(C)C)NC(=O)[C@H](Cc2c[nH]c3ccccc23)NC(=O)[C@H](CCCCN)NC(=O)[C@H](C(C)C)NC(=O)[C@H](Cc2c[nH]c3ccccc23)NC(=O)[C@H](CC(N)=O)NC(=O)[C@H](Cc2c[nH]cn2)NC(=O)CNC(=O)[C@H](CO)NC1=O) [Compound 42] |  | 0.44 | 32 | 

The next lines start with results.

Cell adhesion IC50 [1] [nM] | Kd (Recombinant-hTSP1) [nM] | Cell adhesion IC50 [2] [nM] | Binder | further results
12.7 |  |  | {CH2CO}-[2Nal]ISG[MS]DW[Nle]KWVC-NH2 (thioether N-12; reading uncertain) [Compound 67] | 
15.6 |  |  | {CH2CO}-[2Nal]ISGKDW[Nle]KWVC-NH2 (thioether N-12; SMILES CCCC[C@@H]1NC(=O)[C@H](Cc2c[nH]c3ccccc23)NC(=O)[C@H](CC(=O)O)NC(=O)[C@H](CCCCN)NC(=O)CNC(=O)[C@H](CO)NC(=O)[C@H]([C@@H](C)CC)NC(=O)[C@H](Cc2ccc3ccccc3c2)NC(=O)CSC[C@@H](C(N)=O)NC(=O)[C@H](C(C)C)NC(=O)[C@H](Cc2c[nH]c3ccccc23)NC(=O)[C@H](CCCCN)NC1=O) [Compound 57] | 
20.7 |  |  | {CH2CO}-[2Nal]ISGHNW[Nle]KWVC-NH2 (thioether N-12; SMILES CCCC[C@@H]1NC(=O)[C@H](Cc2c[nH]c3ccccc23)NC(=O)[C@H](CC(N)=O)NC(=O)[C@H](Cc2c[nH]cn2)NC(=O)CNC(=O)[C@H](CO)NC(=O)[C@H]([C@@H](C)CC)NC(=O)[C@H](Cc2ccc3ccccc3c2)NC(=O)CSC[C@@H](C(N)=O)NC(=O)[C@H](C(C)C)NC(=O)[C@H](Cc2c[nH]c3ccccc23)NC(=O)[C@H](CCCCN)NC1=O) [Compound 59] | 
30.6 |  |  | {CH2CO}-FISGRNWVTWVC-NH2 (thioether N-12; SMILES CC[C@H](C)[C@@H]1NC(=O)[C@H](Cc2ccccc2)NC(=O)CSC[C@@H](C(N)=O)NC(=O)[C@H](C(C)C)NC(=O)[C@H](Cc2c[nH]c3ccccc23)NC(=O)[C@H]([C@@H](C)O)NC(=O)[C@H](C(C)C)NC(=O)[C@H](Cc2c[nH]c3ccccc23)NC(=O)[C@H](CC(N)=O)NC(=O)[C@H](CCCNC(=N)N)NC(=O)CNC(=O)[C@H](CO)NC1=O) [Compound 65] | 
33.8 |  |  | {CH2CO}-FISGKNWVSWVC-NH2 (thioether N-12; SMILES CC[C@H](C)[C@@H]1NC(=O)[C@H](Cc2ccccc2)NC(=O)CSC[C@@H](C(N)=O)NC(=O)[C@H](C(C)C)NC(=O)[C@H](Cc2c[nH]c3ccccc23)NC(=O)[C@H](CO)NC(=O)[C@H](C(C)C)NC(=O)[C@H](Cc2c[nH]c3ccccc23)NC(=O)[C@H](CC(N)=O)NC(=O)[C@H](CCCCN)NC(=O)CNC(=O)[C@H](CO)NC1=O) [Compound 66] | 
